Data as given in patent publication US20260166185A1 (Y MABS THERAPEUTICS, published 2026).
Values belong to the binder of their own block, whether it stands above or below them.

What was measured:
[1] = molecular target: T1, CD38 on Daudi cells (UniProt P28907 1-300, limits assumed); assay: titration binding FACS on Daudi cells
T1 construct: whole, on cells
Description: Subsequently the EC50 of antibodies samples was determined by titration binding FACS on Daudi cells (for CD38 binding evaluation), on THP-1 cells (for CD33 binding evaluation), on A-431 cells (for EGFR binding evaluation), on MKN-45 cells (for CEACAMS binding evaluation) and on HEK293T (for CD276 binding evaluation). Jurkat E6-1 or HEK293T cell lines were used as negative control, as applicable.

[2] = molecular target: T2, bio-huCD38 (human (hu), UniProt P28907 43-300, biotinylated (bio-), site not stated); assay: SPR (Biacore 8K+), immobilized antigen
[3] = molecular target: Bio-huHER2/Erb2 (human (hu), UniProt P04626 23-652, biotinylated (bio-), site not stated); assay: SPR (Biacore 8K+), immobilized antigen, 25.0-1.6 nM
[4] = molecular target: T2, bio-huCD38; assay: as above
[5] = molecular target: T2, bio-huCD38; assay: SPR, antigen immobilized, antibody as analyte 100-6.25 nM
Description: (§1) SPR analysis was performed on a Biocore 8K+, using a CFJB0944 CM5 sensor chip for immobilization and a SPR running buffer 1×HBS-EP+pH 7.4 (Cytiva, cat no. BR100669) according to the manufacturer's instructions.
(§2) In the second part of this example, antigen was immobilized on the chip and antibody dissolved in the SPR running buffer flowed over the chip.

[6] = molecular target: T2, bio-huCD38; assay: SPR, antibody captured on chip, antigen as analyte 200-6.25 nM
Description: as §1
In the first part of this example the antibody was immobilized on the chip and the antigen dissolved in the SPR running buffer flowed over the chip.

[7] = molecular target: T2, bio-huCD38; assay: SPR, antigen immobilized, antibody as analyte 50-3.1 nM
Description: as §1, §2

[8] = molecular target: T2, bio-huCD38; assay: SPR, antigen immobilized, antibody as analyte 25-1.6 nM
Description: as §1, §2

- EC50 [1]: 1.07 nM
- Kd [2]: 0.316 nM
- koff [2]: 0.000148 s⁻¹
- kon [2]: 470000 M⁻¹ s⁻¹
B1: CD38-DOTA(fab)-dp53 (bispecific antibody)
light: DVQLQESGGGLVQAGGSLRLSCTGSGRTFRNYPMAWFRQAPGKEREFVAGITWVGASTLYADFAKGRFTISRDNAKNTVYLQMNSLKPEDTAVYSCAAGRGIVAGRIPAEYADWGQGTQVTVSSGGGGSGGGGSGGGGSGGGGGSQAVVIQESALTTPPGETVTLTCGSSTGAVTASNYANWVQEKPDHLFTGLIGGHNNRPPGVPARFSGSLIGDKAALTIAGTQTEDEAIYFCALWYSDHWVIGGGTRLTVLGQPKANPTVTLFPPSSEELQANKATLVCLISDFYPGAVTVAWKADGSPVKAGVETTKPSKQSNNKYAASSYLSLTPEQWKSHRSYSCQVTHEGSTVEKTVAPTECS
heavy: HVKLQESGPGLVQPSQSLSLTCTVSGFSLTDYGVHWVRQSPGKGLEWLGVIWSGGGTAYNTALISRLNIYRDNSKNQVFLEMNSLQAEDTAMYYCARRGSYPYNYFDAWGRGTTVTVSSASTKGPSVFPLAPSSKSTSGGTAALGCLVKDYFPEPVTVSWNSGALTSGVHTFPAVLQSSGLYSLSSVVTVPSSSLGTQTYICNVNHKPSNTKVDKKVEPKSCGGHHHHHH
notes: No tetramerization domain; also called YM00017; molecule 15

- Kd [3]: 0.0588 nM
- koff [3]: 2.25e-05 s⁻¹
- kon [3]: 383000 M⁻¹ s⁻¹
B2: HER2-DOTA(Fab)-p53 (bispecific antibody)
light: QVQLQESGGGSVQAGGSLKLTCAASGYIFNSCGMGWYRQSPGRERELVSRISGDGDTWHKESVKGRFTISQDNVKKTLYLQMNSLKPEDTAVYFCAVCYNLETYWGQGTQVTVSSGGGSGGGSGGGSGGGGSQAVVTQESALTTSPGETVTLTCRSSTGAVTTSNYANWVQEKPDHLFTGLIGGNNNRPPGVPARFSGSLIGDKAALTIAGTQTEDEAIYFCALWYSNHWVFGGGTRLTVLGQPKSSPSVTLFPPSSEELETNKATLVCTITDFYPGVVTVDWKVDGTPVTQGMETTQPSKQSNNKYMASSYLTLTARAWERHSSYSCQVTHEGHTVEKSLSPAECS
heavy: HVKLQESGPGLVQPSQSLSLTCTVSGFSLTDYGVHWVRQSPGKGLEWLGVIWSGGGTAYNTALISRLNIYRDNSKNQVFLEMNSLQAEDTAMYYCARRGSYPYNYFDAWGRGTTVTVSSASTKGPSVFPLAPSSKSTSGGTAALGCLVKDYFPEPVTVSWNSGALTSGVHTFPAVLQSSGLYSLSSVVTVPSSSLGTQTYICNVNHKPSNTKVDKKVEPKSCGGGGSGGGGSKPLDGEYFTLQIRGRERFEMFRELNEALELKDAQAGKEPGGSGGAPHHHHHH
notes: Tetramerizes through p53 depending on concentration; also called YM00018; molecule 2

- EC50 [1]: 0.65 nM
- Kd [4]: 0.0257 nM
- koff [4]: 1.41e-05 s⁻¹
- kon [4]: 550000 M⁻¹ s⁻¹
B3: CD38-DOTA(Fab)-p53 (bispecific antibody)
light: B1 light
heavy: B2 heavy
notes: VHH-Fab fusion of two polypeptide chains; Tetramerizes through p53 depending on concentration; also called YM00016; molecule 1

- EC50 [1]: 3.75 nM
- Kd [5]: 0.313 nM
- koff [5]: 1.3e-05 s⁻¹
- kon [5]: 41500 M⁻¹ s⁻¹
- Kd [6]: 1.28 nM
- koff [6]: 0.000103 s⁻¹
- kon [6]: 80700 M⁻¹ s⁻¹
B4: CD38-DOTA(fab)-p53_C-Term-LC (bispecific antibody)
light: QAVVIQESALTTPPGETVTLTCGSSTGAVTASNYANWVQEKPDHLFTGLIGGHNNRPPGVPARFSGSLIGDKAALTIAGTQTEDEAIYFCALWYSDHWVIGGGTRLTVLGQPKANPTVTLFPPSSEELQANKATLVCLISDFYPGAVTVAWKADGSPVKAGVETTKPSKQSNNKYAASSYLSLTPEQWKSHRSYSCQVTHEGSTVEKTVAPTECSGGGGSGGGGSGGGGSGGGGGSDVQLQESGGGLVQAGGSLRLSCTGSGRTFRNYPMAWFRQAPGKEREFVAGITWVGASTLYADFAKGRFTISRDNAKNTVYLQMNSLKPEDTAVYSCAAGRGIVAGRIPAEYADWGQGTQVTVSS
heavy: HVKLQESGPGLVQPSQSLSLTCTVSGFSLTDYGVHWVRQSPGKGLEWLGVIWSGGGTAYNTALISRLNIYRDNSKNQVFLEMNSLQAEDTAMYYCARRGSYPYNYFDAWGRGTTVTVSSASTKGPSVFPLAPSSKSTSGGTAALGCLVKDYFPEPVTVSWNSGALTSGVHTFPAVLQSSGLYSLSSVVTVPSSSLGTQTYICNVNHKPSNTKVDKKVEPKSCGGGGSGGGGSKPLDGEYFTLQIRGRERFEMFRELNEALELKDAQAGKEPGGS
notes: VHH at the C-terminus of the light chain; also called YM00013; molecule 12

- EC50 [1]: 2.36 nM
- Kd [7]: 0.163 nM
- koff [7]: 1.52e-05 s⁻¹
- kon [7]: 93300 M⁻¹ s⁻¹
- Kd [6]: 1.33 nM
- koff [6]: 7.59e-05 s⁻¹
- kon [6]: 57000 M⁻¹ s⁻¹
B5: CD38-DOTA(fab)-p53_C-Term-HC (bispecific antibody)
light: QAVVIQESALTTPPGETVTLTCGSSTGAVTASNYANWVQEKPDHLFTGLIGGHNNRPPGVPARFSGSLIGDKAALTIAGTQTEDEAIYFCALWYSDHWVIGGGTRLTVLGQPKANPTVTLFPPSSEELQANKATLVCLISDFYPGAVTVAWKADGSPVKAGVETTKPSKQSNNKYAASSYLSLTPEQWKSHRSYSCQVTHEGSTVEKTVAPTECS
heavy: HVKLQESGPGLVQPSQSLSLTCTVSGFSLTDYGVHWVRQSPGKGLEWLGVIWSGGGTAYNTALISRLNIYRDNSKNQVFLEMNSLQAEDTAMYYCARRGSYPYNYFDAWGRGTTVTVSSASTKGPSVFPLAPSSKSTSGGTAALGCLVKDYFPEPVTVSWNSGALTSGVHTFPAVLQSSGLYSLSSVVTVPSSSLGTQTYICNVNHKPSNTKVDKKVEPKSCGGGGSGGGGSGGGGSGGGGGSDVQLQESGGGLVQAGGSLRLSCTGSGRTFRNYPMAWFRQAPGKEREFVAGITWVGASTLYADFAKGRFTISRDNAKNTVYLQMNSLKPEDTAVYSCAAGRGIVAGRIPAEYADWGQGTQVTVSSGGGGSGGGGSKPLDGEYFTLQIRGRERFEMFRELNEALELKDAQAGKEPGGS
notes: VHH C-terminal of the Fab heavy chain, before p53; also called YM00014; molecule 13

- EC50 [1]: 0.59 nM
- Kd [8]: 0.936 nM
- koff [8]: 1.63e-05 s⁻¹
- kon [8]: 17400 M⁻¹ s⁻¹
- Kd [6]: 2.09 nM
- koff [6]: 7.86e-05 s⁻¹
- kon [6]: 37600 M⁻¹ s⁻¹
B6: CD38-DOTAM(Fab)-p53 (bispecific antibody)
light: DVQLQESGGGLVQAGGSLRLSCTGSGRTFRNYPMAWFRQAPGKEREFVAGITWVGASTLYADFAKGRFTISRDNAKNTVYLQMNSLKPEDTAVYSCAAGRGIVAGRIPAEYADWGQGTQVTVSSGGGGSGGGGSGGGGSGGGGGSDIQMTQSPSSLSASVGDRVTITCQSSHSVYSDNDLAWYQQKPGKAPKLLIYQASKLASGVPSRFSGSGSGTDFTLTISSLQPEDFATYYCLGGYDDESDTYGFGGGTKVEIKRTVAAPSVFIFPPSDEQLKSGTASVVCLLNNFYPREAKVQWKVDNALQSGNSQESVTEQDSKDSTYSLSSTLTLSKADYEKHKVYACEVTHQGLSSPVTKSFNRGEC
heavy: VTLKESGPVLVKPTETLTLTCTVSGFSLSTYSMSWIRQPPGKALEWLGFIGSRGDTYYASWAKGRLTISKDTSKSQVVLTMTNMDPVDTATYYCARERDPYGGGAYPPHLWGRGTLVTVSSASTKGPSVFPLAPSSKSTSGGTAALGCLVKDYFPEPVTVSWNSGALTSGVHTFPAVLQSSGLYSLSSVVTVPSSSLGTQTYICNVNHKPSNTKVDKKVEPKSCGGGGSGGGGSKPLDGEYFTLQIRGRERFEMFRELNEALELKDAQAGKEPGGS
notes: Tetramerizes through p53 depending on concentration; also called YM00006; molecule 5

- EC50 [1]: 0.51 nM
- Kd [8]: 0.132 nM
- koff [8]: 0.000189 s⁻¹
- kon [8]: 1.43e+06 M⁻¹ s⁻¹
- Kd [6]: 12.7 nM
- koff [6]: 0.000214 s⁻¹
- kon [6]: 16800 M⁻¹ s⁻¹
B7: CD38-DOTAM(fab)-dp53 (bispecific antibody)
light: B6 light
heavy: VTLKESGPVLVKPTETLTLTCTVSGFSLSTYSMSWIRQPPGKALEWLGFIGSRGDTYYASWAKGRLTISKDTSKSQVVLTMTNMDPVDTATYYCARERDPYGGGAYPPHLWGRGTLVTVSSASTKGPSVFPLAPSSKSTSGGTAALGCLVKDYFPEPVTVSWNSGALTSGVHTFPAVLQSSGLYSLSSVVTVPSSSLGTQTYICNVNHKPSNTKVDKKVEPKSCG
notes: No tetramerization domain; also called YM00007; molecule 6
